Experiment: soluble on expression in E. coli; label from the status in PepcDB or PDB records

Sequence | soluble on expression in E. coli
MGSDKIHHHHHHMVYVNANVDTKVDNRKDNCDNTNTYSHTVDRKDNFDNTTTNTKTVNRNDNCNNQEEGDVNMYRRNDNCNNREATNSRSANYSIHNQGMINCYNGIAIDNRAFNSSGANTMAGTEFLRAFLDAPMSVMPGSRKNAIMDRQEGSTQPAIRYNNR | not soluble
MSLTTVGIRGTFFDFVDDPWKHIGNEQAAARFHQDGLMVVTDGVIKAFGPYEKIAAAHPGVEITHIKDRIIVPGFIDGHIHLPQTRVLGAYGEQLLPWLQKSIYPEEIKYKDRNYAREGVKRFLDALLAAGTTTCQAFTSSSPVATEELFEEASRRNMRVIAGLTGIDRNAPAEFIDTPENFYRDSKRLIAQYHDKGRNLYAITPRFAFGASPELLKACQRLKHEHPDCWVNTHISENPAECSGVLVEHPDCQDYLGVYEKFDLVGPKFSGGHGVYLSNNEFRRMSKKGAAVVFCPCSNLFLGSGLFRLGRATDPEHRVKMSFGTDVGGGNRFSMISVLDDAYKVGMCNNTLLDGSIDPSRKDLAEAERNKLSPYRGFWSVTLGGAEGLYIDDKLGNFEPGKEADFVALDPNGGQLAQPWHQSLIADGAGPRTVDEAASMLFAVMMVGDDRCVDETWVMGKRLYKKSEGHHHHHH | soluble
SGTPNDQAVLQAIFNPDTPFGDVVGLDLEEAEEGDEDGVFPQAQLEHSKALELQGVRAAEAGDLHTALEKFGQAISLLPDRASAYNNRAQARRLQGDVAGALEDLERAVTLSGGRGRAARQSFVQSGLLARFQGRDDDARRDFEKAARLGSPFARRQLVLLNPYAALCNRMLADMMGQLRAPSNGR | soluble
MGSDKIHHHHHHGCSDSMTEESDSEQRIPIVFGTQVATRAVVENNKEGMDNFTLWGWVRESDGPKLFFDAVPVTPSGNYGEKRFWAVGRPYGFYAVHPEKMKENNIATEVSCNDKGELRVTGFDSSEMGKGAVDLMTAAKTDVVYEGGGMMAPVLLAFKHELAQVKFTVCTGEKQAEVSDIRLLGVDYKGDLLWTPEESTWQNRINCTEEGTPFVRSESVRIEAGSSVTVLDSVLLLPQPVTEHVAVTFKYAYAGKPLSEAKEAMVYLDVAQTTEWIKSSTYHYKITLPAGDADITVKVSVGDWDSRDISADW | not soluble
MAHHHHHHMFMVDTDGSAISYHIPVSPFVPLQHDKIDVTTVNRLANFGMRFAMEHGWCYNRHSGDAHSNYASEAVEEGYVESGEDVTVFFAGVDVELVGEFPKFDGKITPASVFFLGQFWISHVGKSSFGVYGKIFRYEAADEKNKFPIGVFKLTGVNVSKKSRRPVPIPKERAEMLLETMRRHQLNTSLPLVVRIDVADFLSRSGLFTDTTYCKLVDKMATYASVTPLTVTYRREFHIRQSDIDFNRHVNQMALIQFVINTFRSALLDQTTVFPRLLDVGVDAIVGDLLLRRLHIDYIRETPMGHQSVAVALFFAEDSSRDAVIASTPESRGNQLAELCFLAQGIPGDGSPSYIAAVGKLYFFC | not soluble
MGSDKIHHHHHHMRILVTNDDGIQSKGIIVLAELLSEEHEVFVVAPDKERSATGHSITIHVPLWMKKVFISERVVAYSTTGTPADCVKLAYNVVMDKRVDLIVSGVNRGPNMGMDILHSGTVSGAMEGAMMNIPSIAISSANYESPDFEGAARFLIDFLKEFDFSLLDPFTMLNINVPAGEIKGWRFTRQSRRRWNDYFEERVSPFGEKYYWMMGEVIEDDDRDDVDYKAVREGYVSITPIHPFLTNEQCLKKLREVYD | not soluble
MGSDKIHHHHHHMSTNHGANLYSLSSKYGFSKEEFMDFSSNINPFGTSSLAKQYIVNNIDMVSMYPDPDYIDLKTSISNYCKCSIDNIVLGSGATELISSFIHTINPKQALLLSPAYSEYEKELSKINCSIEKYFAKEEDNFHINLENLIKTINAKDYDLVVICNPSNPTGFAFTKVEVREILKNTDSFLMIDETYVEFTDTDTYSCTQLVDDYSNLFVIRGTSKFFSTPGIRLGYGLISNTNVKNEINKNLDLWNINIIASKMGEIMFSDLDFISNTISLMNTERDYLLKELKNIKSLDIYNTKGNFILCKIKTKELTAKSLREQLLPQKIIIRDCCSFKGLDEYFFRVCILKPNENKLLISSLKSIFK | not soluble
MNTLYTLFATCPRGLETVLSQELESLGCTDVQVFDGGVSCRGGLEQVYAANLHSRTASRILLRLTKGTYRNERDIYKLAKNINWFNWFTLQQTFKVKVEAKRANVKSIQFVGLTVKDAVCDAFRDIYDARPSVDKAAPDVRIHAFLNERNVEIFIDTSGEALFKRGYRLDTGEAPLRENLAAGLLLSAGYDGTQPFQDPFCGSGTIAIEAAWIAARRAPGMMRRFGFEKLQNFDKTLWSDLRRRAEAQTRPVRAPIAGSDNDRRIVQTALDNARRAGVDDIVSFSVADAQSVRPNGENGIMVSNPPYGVRLEEVRALQALYPQLGTWLKKHYAGWLAAMFTGDREMPKFMCLSPKRKIPLYNGNIDCRLFLIDMVEGSNR | not soluble
MEKVAFIGLGAMGYPMAGHLARRFPTLVWNRTFEKALRHQEEFGSEAVPLERVAEARVIFTCLPTTREVYEVAEALYPYLREGTYWVDATSGEPEASRRLAERLREKGVTYLDAPVSGGTSGAEAGTLTVMLGGPEEAVERVRPFLAYAKKVVHVGPVGAGHAVKAINNALLAVNLWAAGEGLLALVKQGVSAEKALEVINASSGRSNATENLIPQRVLTRAFPKTFALGLLVKDLGIAMGVLDGEKAPSPLLRLAREVYEMAKRELGPDADHVEALRLLERWGGVEIR | soluble
MSSVVNAAYAEYNGKEKGDQEDPRVLIPQLCRLFYELGWVTGTGGGISLRHGEHIYIAPSGVQKERIQPEDLFVCDIDEKDISCPPPQKKLKKSQCTPPFMNAYTMRGAQAVIHTHSKSAVMATLLFPGKEFRITHQEMIKGIRKGNSGTNFRYDDTLVVPIIENTPEEKDLKERMARAMDMYPDSCAVLVRRHGVYVWGETWEKAKTMCECYDYLFDIAVQMKQSGLDPSAFPTEEKGIV | not soluble
MDANTLNVSFEEILKGKKLDEDSIGLTLSPDKDHEDGSQVSPTQDRKELDQVVGEDEKDDFFE | soluble
SLSLRPSPRLLCTATKQKNSGQNLEEDMGQSEQKADPPATEKTLLEEKVKLEEQLKETVEKYKRALADTENLRQRSQKLVEEAKLYGIQAFCKDLLEVADVLEKATQCVPKEEIKDDNPHLKNLYEGLVMTEVQIQKVFTKHGLLKLNPVGAKFDPYEHEALFHTPVEGKEPGTVALVSKVGYKLHGRTLRPALVGVVKEA | soluble
MNEFMEPLDRISAETLGHYERNAEAFFEGTRDHDVSQNIAALLSHIRTEPPFTVLDFGCGPGRDLKAFTELGHRAVGLDGAFRFVEMARDYSGCEVWHQDFLKLDLPEEHFDGIFANATLFHVPSRELPRVLGELRAALKPEGVLFASNPRGRNEEGWNRGRYGVYHDLDTWRRFLTSAGFLELEHYYRPAGLPRDQQPWLASVWRRTLEHHHHHH | soluble
KSKKAVWHKLLSKQRRRAVVACFRMTPLYN | soluble
MFNFANVYQQIAQHPQLQLWLNTLPQQLTDWQAKQHGDLDRWMRNLKKIPVGQPEVIDLKNAVAAHNHQPLAQGEQKKLEAVLKTFHPWRKGPYHLHGIHIDTEWRSDWKWDRLLPHISPLKNRLVLDVGCGNGYHMWRMLGEGAQQVFGIDPSELFLIQFEAVRKLLGDDQRVHLLPLGIEQMPELNAFDTVFSMGVLYHRRSPLDHLLQLKNQLVAGGELILETLVVEGDEHTVLVPFDRYAQMRNVYFFPSALALKVWLEKTGFVDVRIVDENITSLGEQRTTEWMTHNSLPDYVDPQDPSKTIEGYPAPRRAILIAKKP | not soluble
MGSDKIHHHHHHMKVVKFGGSSLASSQQLYKVLNIIKSDYTRRFVVVSAPGKRYEEDLKMTDALIQYYQNYINGKDIVKDQTWIINRYQEIISDLSLGSTIAEEITRSIEQLASLPIENNQFLYDCFLAAGEDNNAKLVATFFNQNDIPARYVHPNEAGIIVTKEPCNARIIPGSYDKIENLCLYNEVLVIPGFFGVTEDNQICTFSRGGSDITGSLIAAGIKADLYENFTDVDGIFAAHPGVVKNPHAIPELTYKEMRELAYAGFSVLHDEALLPAYRGRIPLVIKNTNNPQQPGTKIVLKHTRSNIAVTGIASDSRFASINVSKYLMNREVGFGRKVLQILEDLNISFEHMPTGIDDLSIVLREKELTPIKEQEILNYLTRKLEVDYVDIQHNLSTIVIVGENMKSQIGVTATATQALSREKINITMISQGSSEVSIMFVINSKDEKRAIKALYETFFQK | not soluble
MLDLFADAEPWQEPLAAGAVILRRFAFNAAEQLIRDINDVASQSPFRQMVTPGGYTMSVAMTNCGHLGWTTHRQGYLYSPIDPQTNKPWPAMPQSFHNLCQRAATAAGYPDFQPDACLINRYAPGAKLSLHQDKDEPDLRAPIVSVSLGLPAIFQFGGLKRNDPLKRLLLEHGDVVVWGGESRLFYHGIQPLKAGFHPLTIDCRYNLTFRQAGKKENLYFQNLYFQ | soluble
MSLSFASSACFNEAGTMFRIEPNLIKAIALVESNLKKDSIGKNRDKKNNIKSFDYGLMQINQMHIPMLKKRGIIKDERDLLDNPCLNIKIGTEILYKHFSRCGMTWQCLGTYNAGFAMDNQKKRLQYAKKIYIVYTRLNELDNRKALAEGHHHHHH | soluble
MKWRTRVTELLGITYPIIQGGLAYLAYADLAAAVSNAGGLGQITAMSLDGPEQLREEIRKVKEKTDRPFGVNFAIGQHGRPFAHMLEAALDEGVPVVSVTGGNPAPFFEQLKGTNVKKLVLVAAVRQAVKAEELGADAVMVVGQEGGGHLGKYDTGTFVLIPKVVDSVSIPVIASGGIADGRGLMAALALGAEGIEMGTRFIATKECVHAHPAYKEMILNATENDTVIIKRSLGAPGRVLANAWAEKILEIERQGGTYDDLKEYISGEANRRFIYEGKVDEGFAWAGQAIGLIHDVPSVAELFARMIEEAEQIRRRWAN | not soluble
MTYKGYLIDLDGTIYKGKDRIPAGEDFVKRLQERQLPYILVTNNTTRTPEMVQEMLATSFNIKTPLETIYTATLATIDYMNDMKRGKTAYVIGETGLKKAVAEAGYREDSENPAYVVVGLDTNLTYEKLTLATLAIQKGAVFIGTNPDLNIPTERGLLPGAGAILFLLEKATRVKPIIIGKPEAVIMNKALDRLGVKRHEAIMVGDNYLTDITAGIKNDIATLLVTTGFTKPEEVPALPIQPDFVLSSLAEWDFDER | soluble
MHKEKHCAVVIDCWMEKIGEVNFENKPSKFPAFVEEIRKICGTKDFVFGLEDTRGFGRNLASYLTGRKFEVKHVNPVYTSAIRLSNPIIYKDDSYDAYCVARVLRDMVDTLQDAKHEDIYWAIRQLVKRREIIVKYNVMNKNQLHSQLSYGYPSYKKFFSQIDGKSALCFWENYPSPEHIWCTTPEQIYETIKAVHQAFKIERVHAIIDMIKKDGNTQKGYQEERDTIVRNIVKDIKNNQELLKDIEKQLRKLLPQTGYKLQTMPGIDLITEAKIVSEIGDINRFPNSDKLARFMGLAPVHFSSAGKGKEERCRNGNRELNAIFHFLAIQMVAVSPSGKPRHPVFREYFEQKVKEGKNKPQALICISRTLVRLIYGMMKTKTEYRPYEKKEEEGNN | soluble
MMLKQAAKKALGLTSRQSTPWSVGILRTYHENVIDHYDNPRNVGSFDKNDPNVGTGLVGAPACGDVMKLQIKVDEKTGQIVDARFKTFGCGSAIASSSVATEWVKGKAMEDVLTIKNTEIAKHLSLPPVKLHCSMLAEDAIKAAVKDYKEKRVKTNGAAAAGETTQA | not soluble
GMQLTSENYYSQEANKEYMSVSGYKDFAGTYGKMPCEFYGMEKLNGRWEDEKSTALLVGSYVDSYFEGSLDQFKKDNPEIFTQKGELKANFKQAEEIIARIERDEYFMKYMSGQKQVIMTGELFGAKWKIKMDSYIPGVAIVDLKVMASITDLKWVKDIGYLDFVRYWGYDIQGAVYQEIVRQNTGEKLPFFIAGATKQTEPDIRIIHVTDNYLQEALHMVEMNMPRILRVKNGEVEPDRCELCDCCRHNRVLKKPISIMDLTAGI | soluble
